T1: Mus musculus Mfsd2a with a single point mutation (Q67H), purified in LMNG/CHS/GDN detergent (Mus musculus, UniProt Q9DA75 1-534, limits assumed)
T1 construct: Membrane transporter expressed in HEK293S cells and purified in detergent; also called mouse Mfsd2a Q67H
T1 sequence (looked up): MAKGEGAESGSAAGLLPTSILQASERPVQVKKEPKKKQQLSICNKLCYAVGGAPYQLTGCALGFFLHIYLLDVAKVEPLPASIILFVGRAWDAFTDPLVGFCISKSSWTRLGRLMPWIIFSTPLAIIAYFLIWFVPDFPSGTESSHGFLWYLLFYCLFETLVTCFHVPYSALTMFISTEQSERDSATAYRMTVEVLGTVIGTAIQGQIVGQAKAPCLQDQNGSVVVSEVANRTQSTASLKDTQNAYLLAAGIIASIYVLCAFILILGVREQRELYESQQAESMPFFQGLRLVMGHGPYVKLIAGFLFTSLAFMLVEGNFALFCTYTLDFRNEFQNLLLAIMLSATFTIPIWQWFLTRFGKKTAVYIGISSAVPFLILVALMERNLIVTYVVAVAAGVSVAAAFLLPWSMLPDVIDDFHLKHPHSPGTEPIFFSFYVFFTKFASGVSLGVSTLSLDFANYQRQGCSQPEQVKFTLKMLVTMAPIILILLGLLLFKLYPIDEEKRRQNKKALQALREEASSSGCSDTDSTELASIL

T2: Mouse Mfsd2a, wild type (endogenous on brain endothelial cells of wildtype mice); stably expressed in HEK293 … (mouse, UniProt Q9DA75 1-534)
T2 construct: whole, on cells; also called endogenous Mfsd2a
T2 sequence (looked up): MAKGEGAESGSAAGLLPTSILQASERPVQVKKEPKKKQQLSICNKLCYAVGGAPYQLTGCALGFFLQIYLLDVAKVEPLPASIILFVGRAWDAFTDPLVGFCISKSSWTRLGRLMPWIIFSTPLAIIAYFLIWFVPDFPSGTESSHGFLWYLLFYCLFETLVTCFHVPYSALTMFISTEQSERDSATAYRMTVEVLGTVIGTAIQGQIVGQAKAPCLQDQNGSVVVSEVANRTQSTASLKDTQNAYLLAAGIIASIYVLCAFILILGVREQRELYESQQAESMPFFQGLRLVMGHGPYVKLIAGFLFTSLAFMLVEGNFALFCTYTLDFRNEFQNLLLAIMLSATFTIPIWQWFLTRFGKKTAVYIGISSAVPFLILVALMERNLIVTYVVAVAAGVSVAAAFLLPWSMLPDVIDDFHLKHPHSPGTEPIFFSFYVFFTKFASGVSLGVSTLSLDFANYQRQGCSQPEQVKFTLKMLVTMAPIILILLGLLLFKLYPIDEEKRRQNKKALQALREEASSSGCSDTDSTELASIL


Key:
[1] = molecular target: T1, Mus musculus Mfsd2a with a single point …; experiment: cryo-EM of the complex, scFv as fiducial mark
From the text: Mouse Mfsd2a was over-expressed in HEK293 cells and purified for structural studies. A fortuitous loss-of-function single point mutation Q67H (FIG. 6D) was identified that presumably arrests the transporter in an outward-facing conformation based on its location near the typical extracellular gate area in MFS transporters. It was theorized that this might reduce conformational heterogeneity and selected this variant for structural studies. The purified protein was biochemically stable and appeared monodisperse on size exclusion chromatography (FIG. 6A). To obtain the most homogenous samples for cryo-EM studies, the proteins were screened after being purified under various conditions. Mfsd2a purified in lauryl maltose neopentyl glycol/cholesteryl hemisuccinate/glycol-diosgenin (LMNG/CHS/GDN) detergent mixture was selected for further structural studies as particles appeared to be homogeneous in size and shape. Since Mfsd2a is small in size (59 kDa) with few features outside the micelle, it presents challenges for cryo-EM studies. To aid the particle alignment, we used a single-chain variable fragment (scFv) of antibody that binds to the extracellular side of Mfsd2a as a fiducial mark. This strategy permitted determination of the cryo-EM structure of Mfsd2a at 3.5 Å resolution (FIG. 1B; FIGS. 7A-7F).

[2] = molecular target: T2, Mouse Mfsd2a, wild type (endogenous on …); experiment: IV injection into adult mice (10 ug/ml), brain sections stained with fluorescent secondary antibody
Description: The specificity of the antibody described herein (D1, with CDRs of SEQ ID NOs: 1-6) was tested. IV-injection of D1 antibody or control antibody was IV injected at 10 ug/ml to adult mice. The antibodies were permitted to circulate for 15 minutes, followed by 10 ml PBS perfusion and fixation. Brains were sectioned and stained with fluorescent labeled secondary antibody. […] It specifically binds to the endogenous Mfsd2a that is expressed on the luminal side of the brain endothelial cell plasma membrane in the wildtype mice, absence in the Mfsd2a knockout mice. Control antibody injected animals show no staining.

Row | Binder | binding result [1] | binding result [2]
1 | Anti-Mfsd2a scFv (ScFv of SEQ ID NO: 7) (scFv, Isolated by phage display from chickens immunized with lipoparticles containing mouse Mfsd2a; Expressed as an scFv-Fc fusion with a human Fc; the scFv fragment was released by papain cleavage and purified by ion exchange; also called single-chain variable fragment) scFv: QPSSVSANPGETVKITCSGARYGYGWYQQKSPGSALVTLIYANNIRPSAIPSRFSGSKSGSTATLTITGVRAEDEAVYYCGNEDSITYAAFGAGTTLTVLGGSSRSSGGGGSSGGGGSAVTLDESGGGLQTPKGGLSLVCKASGFTFSSYDMAWVRQAPGKGLEWVAGITSTGSYTNYGAAVKGRATISRDNGQSTVRLQLNSLRAEDTATYFCAKSSFGCPYSCWYDIAGSIDAWGHGTEVIVS | binds | –
2 | D1 antibody (with CDRs of SEQ ID NOs: 1-6) (antibody, V domains shown) VH: AVTLDESGGGLQTPKGGLSLVCKASGFTFSSYDMAWVRQAPGKGLEWVAGITSTGSYTNYGAAVKGRATISRDNGQSTVRLQLNSLRAEDTATYFCAKSSFGCPYSCWYDIAGSIDAWGHGTEVIVSS VL: ALTQPSSVSANPGETVKITCSGARYGYGWYQQKSPGSALVTLIYANNIRPSAIPSRFSGSKSGSTATLTITGVRAEDEAVYYCGNEDSITYAAFGAGTTLTVL | – | binds

Reference: patent publication US20240117033A1 (Harvard, published 2024)
